Values joined by “and” are separate entries in the source; they are usually repeats but may differ in a detail not shown here. Identical values can stand only once.
What was measured:
[1] = target: T1, LILRB2重组蛋白(购于ACRO，Cat# LI2-H5220) (UniProt Q8N423 22-461); assay: BLI (Octet QKe), antibody captured on AHC probe, LILRB2 as analyte, 1:1 fit
T1 construct: Bought reagent; Used as analyte at '60nm' in BLI

[2] = target: T2, LILRB2-mFc(NCBI号:AAH36827，22-461氨基酸) (UniProt Q8N423 22-461); assay: blocking ELISA: LILRB2-mFc binding to coated HLA-G
T2 construct: range 22-461; also called 重组LILRB2; not shown: mouse Fc (mFc)

Kd [1]: 4.93 nM | koff [1]: 0.00211 s⁻¹ | kon [1]: 428000 M⁻¹ s⁻¹ | IC50 [2]: 0.86 nM and 1 nM
B1: JTX-8064 (antibody, V domains shown)
VH: QITLKESGPTLVKPTQTLTLTCTFSGFSLNTYAMGVSWIRQPPGKALEWLASIWWNGNKYNNPSLKSRLTVTKDTSKNQVVLTMTNMDPVDTATYYCAHSRIIRFTDYVMDAWGQGTLVTVSS
VL: DIQMTQSPSSLSTSVGDRVTITCRASEDIYNDLAWYQQKPGKAPKLLIYNANSLHTGVASRFSGSGSGTDFTFTISSLQPEDVATYFCQQYYDYPLTFGQGTKLEIK
notes: expressed in HEK293, Protein A purified; also called 对照抗体

From patent CN114805568A (BEIJING KENUO XINCHENG TECH CO LTD, dated 2022)
